Experimental data as given in paper PMC6003364.

Columns and labels:
[1] = biological target: N-terminally His-tagged, full-length TraE (VirB8 homolog) from plasmid pKM101 (plasmid pKM101); experiment: negative-stain EM
[2] = biological target: periplasmic domain of TraE (plasmid pKM101); experiment: cross-linking

| Substance | stoichiometry N [1] | stoichiometry N [2] |
| --- | --- | --- |
| N-terminally His-tagged, full-length TraE (VirB8 homolog) from plasmid pKM101 (natural protein) | 6 |  |
| periplasmic domain of TraE (domain or fragment) |  | 2 |
